Reference: US20100285597A1 (UNIVERSITY OF ROCHESTER, published 2010)

Target: T1, BACE1 (UniProt P56817 46-501, limits assumed)
T1 construct: Detected as monomer and dimer in the co-immunoprecipitates; also called β-secretase
Assay: co-immunoprecipitation from HEK 293 lysates with nectin-1 cytoplasmic specific antibody, anti-BACE1 Western blot
Protocol: To define the minimal region within the ectodomain of nectin-1 required for BACE1 interaction, immunoprecipitations between the nectin-1 truncation mutants and BACE1 were performed. BACE1 and full length or truncated nectin-1 were co-expressed in HEK 293 cells and harvested 48 hr. after transfection. To confirm to the efficiencies of the co-transfections, equal volumes of cell lysate were loaded on SDS-PAGE gels and analyzed by Western blot. Transfection efficiency was similar for nectin-1 and its derivates (FIG. 10A) and BACE1 (FIG. 10B). Immunoprecipitation was performed with a nectin-1 cytoplasmic specific antibody and precipitates were analyzed on two separate 10% SDS-PAGE. Western blots were probed with anti-nectin-1 (FIG. 10C) or anti-BACE1 (FIG. 10D) antibodies. The nectin-1 antibody directly immunoprecipitated the respective nectin-1 polypeptides and processed CTFs (FIG. 10C). Furthermore, BACE1, both monomer and dimer, was immunoprecipitated by the nectin-1 antibody, confirming the association of BACE1 with nectin-1. Two truncation mutants Δ28-250 and Δ28-300, interacted with BACE1 very strongly.

T1 sequence (P56817 46-501 limits assumed): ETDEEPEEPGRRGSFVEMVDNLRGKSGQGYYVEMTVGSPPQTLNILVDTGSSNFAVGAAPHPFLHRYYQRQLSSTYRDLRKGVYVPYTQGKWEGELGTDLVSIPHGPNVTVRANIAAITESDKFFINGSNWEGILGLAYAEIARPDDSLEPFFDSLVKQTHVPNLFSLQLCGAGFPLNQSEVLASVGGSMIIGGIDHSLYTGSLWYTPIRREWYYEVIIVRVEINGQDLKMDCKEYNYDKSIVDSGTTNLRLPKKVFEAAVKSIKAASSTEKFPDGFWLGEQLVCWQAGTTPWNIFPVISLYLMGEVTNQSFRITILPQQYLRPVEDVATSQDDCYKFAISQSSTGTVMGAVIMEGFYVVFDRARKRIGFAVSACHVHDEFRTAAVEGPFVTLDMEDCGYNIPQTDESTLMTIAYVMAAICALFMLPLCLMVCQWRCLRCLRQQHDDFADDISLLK

B1: nectin-1 truncation mutant Δ28-349 (receptor)
chain: PTAIIGGVAGSILLVLIVVGGIVVALRRRRHTFKGDYSTKKHVYGNGYSKAGIPQHHPPMAQNLQYPDDSDDEKKAGPLGGSSYEEEEEEEEGGGGGERKVGGPHPKYDEDAKRPYFTVDEAEARQDGYGDRTLGYQYDPEQLDLAENMVSQNDGSFISKKEWYV
notes: see m5; not shown: flag tag at the C-terminus
B1: no binding.
